Molecular target: recombinant M. smegmatis RNAP β′ subunit (N-terminal 6xHistidine) (M. smegmatis, UniProt A0QS66 1-1317)
Assay: co-IP

B1: purified recombinant MsmTopoI (enzyme, M. smegmatis, UniProt A0R5D9 1-936, looked up)
chain: MAGGDRGSGGTGNVRRLVIVESPTKARKIAGYLGSNYVVESSRGHIRDLPRNAADVPAKFKSEPWARLGVNVDQNFEPLYIVSPEKKSTVTELKGLLKDVDELYLATDGDREGEAIAWHLLETLKPRVPVKRMVFHEITEPAIRNAAENPRDLDIALVDAQETRRILDRLYGYEVSPVLWKKVAPKLSAGRVQSVATRIIVQRERERMAFHSASYWDVTAELDASVSDPSASPPKFTAKLNTVDGRRVATGRDFDSLGQLKRPDEVLVLDEASAGALASGLRGAQLAVTSVEQKPYTRRPYAPFMTSTLQQEAARKLRFSSERTMSIAQRLYENGYITYMRTDSTTLSESAINAARTQARQLYGEEYVHPSPRQYTRKVKNAQEAHEAIRPAGDVFQTPGQLHSALDTDEFRLYELIWQRTVASQMADARGTTLSLRIGGSASSGEQVVFNASGRTITFPGFLKAYVESIDELAGGESDDAESRLPNLTQGQRVDAADLSADGHQTSPPARYTEASLIKALEELGIGRPSTYSSIIKTIQDRGYVQKKGSALVPSWVAFAVVGLLEQHFGRLVDYDFTAAMEDELDEIANGQEQRTNWLNNFYFGGEHGVEGSIARAGGLKQLVGGNLEGIDAREVNSIKVFDDSEGRPVYVRVGRNGPYLERMVDDPDNPGEQKPQRANLKEDLTPDELTPELAEKLFATPQEGRSLGIDPETGHEIVAKDGRFGPYVTEVLPEPEDGGDDGTAGTPAKKGKKPTGPKPRTGSLFRSMDLETVTLEDALKLLSLPRVVGVDPTTNEEITAQNGRYGPYLKRGTDSRSLATEDQIFTITLDEALKIYAEPKRRGRQAASAPPLRELGNDPVSGKPMVIKDGRFGPYVTDGETNASLRKGDDVLTITDERASELLADRRARGPVKKKAPAKKAAKKAPAKKAAAKKA
B1: binds.
